Where “and” joins values, the source holds several entries; their conditions need not be identical. Equal values may be shown once. No end group written: not given here. *: point of attachment. Biotin = O=C1N[C@H]2[C@H](CS[C@H]2CCCCC(=O)*)N1
Key:
[1] = target: T1, His6-p97 WT (human, UniProt P55072 1-806); assay: pull-down
[2] = target: T1, His6-p97 WT; assay: SPR
[3] = target: T1, His6-p97 WT; assay: mass photometry

T1 sequence (P55072 whole entry): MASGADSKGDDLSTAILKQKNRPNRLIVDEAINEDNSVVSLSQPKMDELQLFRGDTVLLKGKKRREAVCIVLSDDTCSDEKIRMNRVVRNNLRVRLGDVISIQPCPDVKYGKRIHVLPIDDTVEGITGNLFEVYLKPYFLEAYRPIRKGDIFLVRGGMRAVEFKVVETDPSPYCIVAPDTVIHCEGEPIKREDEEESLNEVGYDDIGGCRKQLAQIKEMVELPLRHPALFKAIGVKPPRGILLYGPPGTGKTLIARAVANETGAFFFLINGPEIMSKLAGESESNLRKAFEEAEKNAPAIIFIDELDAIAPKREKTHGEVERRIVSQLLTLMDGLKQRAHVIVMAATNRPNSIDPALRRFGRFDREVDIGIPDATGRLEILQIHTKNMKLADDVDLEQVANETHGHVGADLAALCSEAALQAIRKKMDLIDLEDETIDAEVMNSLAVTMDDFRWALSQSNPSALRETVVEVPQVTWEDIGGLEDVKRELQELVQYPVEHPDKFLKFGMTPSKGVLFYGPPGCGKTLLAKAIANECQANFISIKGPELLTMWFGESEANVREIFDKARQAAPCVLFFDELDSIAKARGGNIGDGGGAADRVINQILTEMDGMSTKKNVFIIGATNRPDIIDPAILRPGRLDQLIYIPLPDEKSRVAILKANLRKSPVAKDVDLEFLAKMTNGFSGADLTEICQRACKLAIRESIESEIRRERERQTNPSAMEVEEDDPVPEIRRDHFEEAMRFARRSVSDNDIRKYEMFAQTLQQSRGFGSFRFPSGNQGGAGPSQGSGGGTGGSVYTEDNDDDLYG

binding result [1] | Kd [2] [nM] | stoichiometry N [3] | Binder
binds | – | – | Biotin-NLTSEELRKRREAYFEKQQQK [VBM peptide (ATXN3, aa275-295)]
– | ~10 | 2 VCF1 molecules per p97 hexamer and 3 VCF1 molecules per p97 hexamer | Strep-HA-VCF1 WT (natural protein) not shown
binds | – | – | Biotin-PTPDLEEKRAKLAEAAERRQKEAAS [VIM peptide (SVIP, aa14-39)]

Reference: article doi:10.1101/2023.07.25.550448 (bioRxiv, 2023)
